{"source": "patent US20180028516A1", "about": "“METHODS AND DEVICES FOR THE TREATMENT OF OCULAR DISEASES IN HUMAN SUBJECTS” (CLEARSIDE BIOMEDICAL, INC., priority 2012, published 2018)", "key": {"[1]": {"assay": "Delivery and clearance of sodium fluorescein from the suprachoroidal space in live rabbits (Example 5)", "type": "in vivo, rabbit", "settings": "SCS injection", "procedure": "The delivery of a fluorescent molecule (sodium fluorescein) to the suprachoroidal space was evaluated using rabbits according to approved live animal experimental protocols. A one dimensional scan of the eye (through line of sight) was taken within the first five minutes after injection to determine the dispersion of the fluorescent molecule in the eye (FIG. 14). The y-axis indicates the fluorescent intensity (i.e., the concentration) and the x-axis represents the position in the eye from front (160) to back (0). Thus, the results illustrate that within the first 5 minutes after injection, the fluorescein had already flowed through the suprachoroidal space to the back of the eye. with some remaining at the initial insertion site.\nSimilar scans were taken to evaluate the rate of clearance of fluorescein from the suprachoroidal space over time (FIG. 15). The fluorescent intensity was measured in two regions of the eye (the suprachoroidal space and mid-vitreous region) over time. The results illustrate that the bulk of the material injected remains in the suprachoroidal space without passing into the mid-vitreous region and that the material substantially cleared the suprachoroidal space within 24 hours."}, "[2]": {"assay": "Phase 1 safety and tolerability of suprachoroidal bevacizumab in patients with CNV secondary to wet AMD (Example 14)", "type": "in vivo, human", "procedure": "(§1) The safety and tolerabilty of a single microneedle injection of bevacizumab into the suprachoroidal space (SCS) using a micronocedle was evaluated. Four adult patients with choroidal neovascularization (CNV), secondary to wet age-related macular degeneration (AMD), were enrolled in a phase 1, single-center, open-label study. Each subject provided informed consent and was screened for eligibility. […] Treated patients remained in the clinic for 4 hours for observation and then retumed multiple times for follow-up during a 2 month period. Major safety examinations included intraocular pressure (IOP), angiograms, biomicroscopy, indirect ophthalmoscopy, fundus photography, optical coherence tomography (OCT), visual acuity (VA) (Table 8), and assessment of pain."}, "[3]": {"assay": "Visual acuity of patients after suprachoroidal bevacizumab (Example 14)", "type": "in vivo, human", "procedure": "as §1"}}, "data": [{"molecule": "O=C1OC2(c3ccc(O)cc3Oc3cc(O)ccc32)c2ccccc21", "note": "[fluorescein, sodium fluorescein]", "values": [{"measurement": "time to substantial clearance from the suprachoroidal space", "setting": "[1]; fluorescent intensity", "value": "≤ 24", "unit": "h"}, {"measurement": "time for fluorescein to flow through the suprachoroidal space to the back of the eye", "setting": "[1]; one dimensional fluorescence scan", "value": "≤ 5", "unit": "min"}]}, {"molecule": "bevacizumab: humanized monoclonal antibody, angiogenesis inhibitor (Avastin)", "values": [{"measurement": "effect on IOP, OCT or VA", "setting": "[2]; 100 μL bevacizumab SCS, any subject", "value": "No negative effect"}, {"measurement": "adverse events related to bevacizumab or the method of administration", "setting": "[2]; 100 μL bevacizumab SCS, ophthalmic examinations", "value": "no unexpected or serious adverse events"}, {"measurement": "level of pain recorded for the administration", "setting": "[2]; 100 μL bevacizumab SCS, topical anesthesia, four patients", "value": "moderate"}, {"measurement": "intraretinal fluid (OCT)", "setting": "[2]; patient number 3, 56 days after injection vs before injection", "value": "Decrease"}, {"measurement": "rescue therapy or reinjection", "setting": "[2]; two months following treatment", "value": "No patients required rescue therapy or reinjection"}, {"measurement": "Visual Acuity", "setting": "[3]; Patient 1, 28 day post dose", "value": "20/40"}, {"measurement": "Visual Acuity", "setting": "[3]; Patient 1, 56 day post dose", "value": "20/40"}, {"measurement": "Visual Acuity", "setting": "[3]; Patient 1, Pre-does", "value": "20/80"}, {"measurement": "Visual Acuity", "setting": "[3]; Patient 1, Screening", "value": "20/40"}, {"measurement": "Visual Acuity", "setting": "[3]; Patient 2, 28 day post dose", "value": "20/20"}, {"measurement": "Visual Acuity", "setting": "[3]; Patient 2, 56 day post dose", "value": "20/20"}, {"measurement": "Visual Acuity", "setting": "[3]; Patient 2, Pre-does", "value": "20/40"}, {"measurement": "Visual Acuity", "setting": "[3]; Patient 2, Screening", "value": "20/40"}, {"measurement": "Visual Acuity", "setting": "[3]; Patient 3, 28 day post dose", "value": "20/250"}, {"measurement": "Visual Acuity", "setting": "[3]; Patient 3, 56 day post dose", "value": "20/250"}, {"measurement": "Visual Acuity", "setting": "[3]; Patient 3, Pre-does", "value": "20/320"}, {"measurement": "Visual Acuity", "setting": "[3]; Patient 3, Screening", "value": "20/320"}, {"measurement": "Visual Acuity", "setting": "[3]; Patient 4, 28 day post dose", "value": "20/400"}, {"measurement": "Visual Acuity", "setting": "[3]; Patient 4, 56 day post dose", "value": "20/400"}, {"measurement": "Visual Acuity", "setting": "[3]; Patient 4, Pre-does", "value": "20/400"}, {"measurement": "Visual Acuity", "setting": "[3]; Patient 4, Screening", "value": "20/400"}]}]}
